For one molecule, Kd results are on record in publication PMC11772769, “Selective cargo and membrane recognition by SNX17 regulates its interaction with Retriever” (EMBO Reports, 2024).

For the assay, the target named is T1, Peptide SNX17_(CT-18), Q15036.
T1 chain: ASDVHGNFAFEGIGDEDL
Kind of assay: fluorescence anisotropy. To be noted: chain shown with the change; 5-FAM-labeled SNX17CT-18 peptide; parent: LB. (In fluorescence polarisation assays a small probe gives low polarisation when free and higher when bound to something large.)

B1: MBP-SNX17 (full-length, wild-type), Q15036 N459A; F462A (protein)
chain: MHFSIPETESRSGDSGGSAYVAYNIHVNGVLHCRVRYSQLLGLHEQLRKEYGANVLPAFPPKKLFSLTPAEVEQRREQLEKYMQAVRQDPLLGSSETFNSFLRRAQQETQQVPTEEVSLEVLLSNGQKVLVNVLTSDQTEDVLEAVAAKLDLPDDLIGYFSLFLVREKEDGAFSFVRKLQEFELPYVSVTSLRSQEYKIVLRKSYWDSAYDDDVMENRVGLNLLYAQTVSDIERGWILVTKEQHRQLKSLQEKVSKKEFLRLAQTLRHYGYLRFDACVADFPEKDCPVVVSAGNSELSLQLRLPGQQLREGSFRVTRMRCWRVTSSVPLPSGSTSSPGRGRGEVRLELAFEYLMSKDRLQWVTITSPQAIMMSICLQSMVDELMVKKSGGSIRKMLRRRVGGTLRRSDSQQAVKSPPLLESPDATRESMVKLSSKLSAVSLRGIGSPSTDASASDVHGAFAAEGIGDEDL
Take B1: the Kd (in general, the constant that tells how readily two partners part at equilibrium) is 86 µM.
